Results published in paper PMC4273445 (eLife, 2014).

Experiments:
Test in all cases: SPR
[1] = molecular target: fHbp V2.21 Val (at V1 Ile196) to Ala (N. meningitidis)
[2] = molecular target: fHbp V1.1 Phe292 to Ala (N. meningitidis)
[3] = molecular target: fHbp V1.1 Gln103 to Ala (N. meningitidis)
[4] = molecular target: fHbp V3.28 Leu (at V1 Arg195) to Ala (N. meningitidis)
[5] = molecular target: fHbp V2.21 Phe (at V1 Phe194) to Ala (N. meningitidis)
[6] = molecular target: fHbp V2.21 Leu (at V1 Ile199) to Ala (N. meningitidis)
[7] = molecular target: fHbp V2.21 Glu (at V1 Asp262) to Ala (N. meningitidis)

Sequence of CFH67, CCP domains 6 and 7 of complement factor H (P08603 321-443): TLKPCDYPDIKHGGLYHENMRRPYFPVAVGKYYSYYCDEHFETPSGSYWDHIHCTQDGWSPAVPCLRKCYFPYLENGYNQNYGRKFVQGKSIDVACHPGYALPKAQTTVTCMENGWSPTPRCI

In the case of “CFH67, CCP domains 6 and 7 of complement factor H (from UniProt P08603 321-443) (domain or fragment)”, the Kd [1] is reported as 40 nM, the Kd [2] is reported as 6.8 nM and the Kd [3] is reported as 7.03 nM.

Substance “CFHR3_(12), the first two (N-terminal) CCP domains of complement factor H-related 3 (from UniProt Q02985 19-330) (domain or fragment)” has a Kd [4] of 1.76 nM, a Kd [5] of 1.08 nM and a Kd [6] of 11.2 nM. It also gave a Kd [7] of 5.43 nM.
